Test results published in patent publication US20190381184A1 (UNIVERSITY OF NORTH CAROLINA AT CHAPEL HILL, published 2019).

Tests used:
PD-L1 [1] = test: Octet binding kinetics
PD-L1 [2] = test: Octet (BLI); compared with the endogenous PD-1/PD-L1 interaction
PD-L1 [3] = test: Octet (BLI) binding kinetics of the trivalent PD-L1 trap with PD-L1

PD-L1, sequence (chain, as listed by the source): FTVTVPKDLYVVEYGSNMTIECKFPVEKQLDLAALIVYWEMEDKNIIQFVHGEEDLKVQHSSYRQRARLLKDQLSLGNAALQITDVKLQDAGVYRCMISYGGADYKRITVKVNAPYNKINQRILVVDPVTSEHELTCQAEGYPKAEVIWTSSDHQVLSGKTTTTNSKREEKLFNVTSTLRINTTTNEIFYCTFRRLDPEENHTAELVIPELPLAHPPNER

Kd (PD-L1 [1]): ~0.0162 nM | fold higher than between endogenous PD-1 and PD-L1 (PD-L1 [2]): 10000 fold | Kd (PD-L1 [3]): ~0.016 nM
B1: trivalent PD-L1 trap (PD-1 extracellular domain - flexible linker - CMP-1 trimerization domain fusion, self-assembled trimer) (other)
chain: GSGPPTFSPALLVVTEGDNATFTCSFSNTSESFVLNWYRMSPSNQTDKLAAFPEDRSQPGQDSRFRVTQLPNGRDFHMSVVRARRNDSGTYLCGAISLAPKAQIKESLRAELRVTERRAEGPQPQPKPQPKPEPEPQPQGGSEEDPCACESILKFEAKVEGLLQALTRKLEAVSGRLAVLENRIIAAAGAPVPYPDPLEPRGGSHHHHHH
notes: also called trimeric trap; trivalent protein
